# B1: IFN-γ: Recombinant mouse IFN-γ (315-05) from Peprotech, intrasplenic injection (protein, UniProt P01580 23-155, looked up)
# Interferon gamma: HGTVIESLESLNNYFNSSGIDVEEKSLFLDIWRNWQKDGDMKILQSQIISFYLRLFEVLKDNQAISNNISVIESHLITTFFSNSKAKKDAFMSIAKFEVNNPQVQRQAFNELIRVVHQLLPESSLRKRKRSRC
# B2: EPO: recombinant erythropoietin (959-ME) from R&D Systems (protein, UniProt P07321 27-192, looked up)
# Erythropoietin: APPRLICDSRVLERYILEAKEAENVTMGCAEGPRLSENITVPDTKVNFYAWKRMEVEEQAIEVWQGLSLLSEAILQAQALLANSSQPPETLQLHIDKAISGLRSLTSLLRVLGAQKELMSPPDTTPPAPLRTLTVDTFCKLFRVYANFLRGKLKLYTGEVCRRGDR
# Assays:
# [1] = test system: p-AKT and p-ERK in LLC cells; experiment: Western blot of p-AKT and p-ERK in LLC cells treated with ARTN and LOXO-292; type: cell-based, mouse; conditions: 100 ng/mL ARTN and 1 μg/mL LOXO-292
# Procedure: FIGS. 61A-61C. Tumor growth of LLC tumor-bearing mice treated with LOXO-292 and either IR (FIG. 61A) or anti-PD-L1 (FIG. 61B). (FIG. 61C) p-AKT and p-ERK in LLC cells treated with 100 ng/mL ARTN and 1 μg/mL LOXO-292 were detected by western blot. Representative data are shown from two or three experiments. Data are represented as mean±SD. *p<0.05, **p<0.01, and ***p<0.001.
# Western Blot Analysis. Whole-cell protein was extracted with Triton-X100 buffer (150 mM sodium chloride, 50 mM Tris, 1% Triton-X100; pH 8.0) with proteinase inhibitors (Thermo Scientific®). Immuno-blotting analyses were performed as previously described (Hou, Y., Liang, H., Rao, E., Zheng, W., Huang, X., Deng, L., Zhang, Y., Yu, X., Xu, M., Mauceri, H., et al. (2018). Non-canonical NF-kappaB Antagonizes STING Sensor-Mediated DNA Sensing in Radiotherapy. Immunity 49, 490-503 e494). The amount of loaded protein was normalized to GAPDH (60004-1-Ig, Proteintech Group) or actin (8226, Abcam).
# [2] = cited from earlier work
# LLC tumor [3] = experiment: Tumor growth of LLC tumor-bearing mice treated with IR or anti-PD-L1 plus test agent; type: in vivo, mouse; conditions: LLC tumor-bearing B6 mice; for Tumor growth: influence on the therapeutic effect of IR and PD-L1 blockade: agent combined with 20 Gy IR or anti-PD-L1
# Procedure: (§1) Tumor models and treatments. 1×10^6 MC38, LLC, or B16-SIY tumor cells were subcutaneously injected into the flank of mice. On day 10 after tumor inoculation, tumors were either irradiated with one dose of 20 Gy or mice received sham treatment. For anti-PD-L1 treatment experiments, 200 μg anti-PD-L1 (10F.9G2) or isotype control was given by i.p. every three days for a total of four times starting on day 10 after tumor inoculation. For type I IFN blockade experiments, 200 μg anti-IFNAR1 were intratumorally injected on days 0 and 2 after irradiation. For CD4 or CD8 T cell depletion experiments, 200 μg anti-CD4 or anti-CD8 mAb was delivered four times by i.p. injection every 3 days starting 1 day before therapies. Artemin-neutralizing antibody was delivered i.t. at 1 μg/mouse starting on day of irradiation, every 2 days for 7 doses. For Ter-cell depletion, anti-ter119 was injected i.p. at 20 μg/mouse every 2 days for 4 doses. For Ter-cell or artemin treatment groups, mice were administered 1×10^7 purified Ter cells i.v. every other day for a total of three doses, or mice were treated with 0.5 μg/mouse artemin i.t. every other day starting on day 0 of therapies throughout the studies. For EPO treatment groups, mice were treated with 20 U/mouse EPO i.v. every other day throughout the studies, starting on day 0 of the therapies. IFN-γ was administered through intrasplenic injection on day 15 post tumor implantation at 2 μg/mouse for 1 dose. LOXO-292 was administered by oral gavaging at 100 μg/mouse/day throughout the entire studies, starting on day 0 of the therapies. Spleens were harvested on day 20 or at indicated times post-inoculation for analysis of spleen size or splenic cells. Tumor size was monitored and calculated with the formula for area (length×width).
# LLC tumor [4] = experiment: Spontaneous lung metastasis (number of lung nodules) in LLC tumor-bearing mice; type: in vivo, mouse; conditions: murine LLC model; combined with IR or anti-PD-L1
# Procedure: FIG. 55. Number of lung nodules in LLC tumor-bearing mice at the end of tumor growth measurement: anti-PD-L1 treatment. B6 mice were inoculated with LLC cells. On day 10 post inoculation, tumor-bearing mice were treated with anti-PD-L1. Splenectomy was performed 1 day before treatments. Representative data are shown from two or three experiments conducted with 3-5 mice or samples per group. Data are represented as mean±SD. **p<0.01 and ***p<0.001.
# FIGS. 62A-62B. Number of lung modules. B6 mice were inoculated with LLC cells. On day 10 post inoculation, tumor-bearing mice were treated with either IR (FIG. 62A) or anti-PD-L1 (FIG. 62B) plus LOXO-292. Splenectomy was performed 1 day before treatments. […] Representative data are shown from two or three experiments conducted with 3-5 mice or samples per group. Data are represented as mean±SD. *p<0.05, **p<0.01, and ***p<0.001.
# Tumor models and treatments. 1×10^6 MC38, LLC, or B16-SIY tumor cells were subcutaneously injected into the flank of mice. On day 10 after tumor inoculation, tumors were either irradiated with one dose of 20 Gy or mice received sham treatment. For anti-PD-L1 treatment experiments, 200 μg anti-PD-L1 (10F.9G2) or isotype control was given by i.p. every three days for a total of four times starting on day 10 after tumor inoculation. […] Tumor size was monitored and calculated with the formula for area (length×width).
# Ter-cells [5] = experiment: Spleen size, splenocytes and splenic Ter-cells by flow cytometry; type: in vivo, mouse
# Procedure: as §1
# (§2) Flow Cytometry. […] Single cell suspensions were blocked with anti-FcR (2.4G2, BioXcell) and then stained with fluorescence-labeled antibodies. Flow cytometry was performed on BD LSR Fortessa at The University of Chicago core facility and data were analyzed with FlowJo software.
# Ter-cells [6] = experiment: Splenic cells by flow cytometry after intrasplenic IFN-γ injection in LLC-bearing mice; type: in vivo, mouse
# Procedure: FIG. 27. Apoptosis of splenic Ter-cells as analyzed by flow cytometry at indicated times post-injection. B6 mice were inoculated with LLC on day 0 and recombinant mouse IFN-γ was administered through intrasplenic injection on day 15. Representative data are shown from two or three experiments conducted with 3-5 mice per group. Data are represented as mean±SD. *p<0.05, **p<0.01, and ***p<0.001.
# FIG. 28A-28C. Mechanism of IR-induced Ter-cell reduction in spleen. (FIG. 28A) Apoptosis of splenic CD45^+ immune cells, MDSCs, and CD8^+ T cells as analyzed by flow cytometry at indicated time post IFN-γ intrasplenic injection. (FIG. 28B) The percentage of CD8^+ T cells were analyzed by flow cytometry at indicated time post IFN-γ intrasplenic injection. (FIG. 28C) […] expression on splenic Ter-cells on day 3 post IFN-γ intrasplenic injection. Representative data are shown from two or three experiments conducted with 3-5 mice or samples per group. Data are represented as mean±SD. *p<0.05, **p<0.01, and ***p<0.001.
# as §1, with “IFN-γ was administered through intrasplenic injection on day 15 post tumor implantation at 2 μg/mouse for 1 dose. LOXO-292 was administered by oral gavaging at 100 μg/mouse/day throughout the entire studies, starting on day 0 of the therapies. Spleens were harvested on day 20 or at indicated times post-inoculation for analysis of spleen size or splenic cells.” left out
# as §2
# artemin = experiment: Artemin levels in serum (ELISA) and artemin mRNA in spleen (qPCR); type: in vivo, mouse; conditions: LLC tumor-bearing mice treated with IR or anti-PD-L1 plus EPO i.v.
# Procedure: ELISA. Tumor tissues were homogenized in PBS with protease inhibitor followed by the addition of Triton X-100. Serum was collected on day 20 post-tumor inoculation or at indicated times. The concentration of artemin or TGF-β was measured with artemin ELISA Kit (E03A0032 for mouse and E01A0032 for human, BlueGene Biotechnology), or TGF-β1 Mouse ELISA Kit (BMS608-4, Invitrogen).
# Real-time PCR assay. mRNA from tumor cells or splenocytes was isolated using TRIzol according to the manufacturer's instructions (Invitrogen). cDNA was synthesized from pd(N)6-primed mRNA reverse transcription using M-MLV superscript reverse transcriptase. Real-time PCR kits (SYBR Premix Ex Taq™, DRR041A) were purchased from Takara Bio Inc. PCR was performed using a CFX96 (Bio-Rad). mRNA specific for the housekeeping gene GAPDH was measured and used as an internal control. The primers for artemin were 5′-TACTGCATTGTCCCACTGCCTCC-3′ (SEQ ID NO: 1) for the upstream primer (UP) and 5′-TCGCAGGGTTCTTTCGCTGCACA-3′ (SEQ ID NO: 2) for the downstream primer (DP); GAPDH: 5′-AGACCAGCCTGAGCAAAAGA-3′ (SEQ ID NO: 3) for UP and 5′-CTAGGCTGGAGTGCAGTGGT-3′ (SEQ ID NO: 4) for DP.
# [7] = LLC tumor-bearing mice, intra-splenic injection
molecule,measurement,setting,value
COc1ccc(CN2C3CC2CN(c2ccc(-c4cc(OCC(C)(C)O)cn5ncc(C#N)c45)cn2)C3)cn1 [LOXO-292],"Artemin-induced activation of downstream signaling (p-AKT, p-ERK)",[1],inhibited artemin-induced activation of downstream signaling
same,Outcomes for patients with RET fusion-positive cancers,[2],improved outcomes
same,Tumor growth: therapeutic effect of IR and PD-L1 blockade in the context of EPO treatment,LLC tumor [3]; IR or anti-PD-L1 plus EPO plus agent,restored the therapeutic effects of IR and PD-L1 blockade
same,Tumor growth: influence on the therapeutic effect of IR and PD-L1 blockade,LLC tumor [3],enhanced the effects of IR and PD-L1 blockade
same,Spontaneous lung metastasis: influence on the effects of IR and PD-L1 blockade,LLC tumor [4],promoted the effects of IR and PD-L1 blockade
rhEPO: Recombinant human erythropoietin used for the treatment of anemia in cancer patients,Survival benefit in cancer patients treated by RT,[2]; several clinical trials,detrimental effects
CO[C@]1(C(=O)N[C@@H](C)c2ccc(-n3cc(F)cn3)nc2)CC[C@H](c2nc(C)cc(Nc3cc(C)[nH]n3)n2)CC1 [BLU-677],Outcomes for patients with RET fusion-positive cancers,[2],improved outcomes
IFN-α,Ter-cell accumulation in spleen after intra-tumor injection,"Ter-cells [5]; WT mice bearing LLC or B16-SIY tumors, i.t.",reduced Ter-cell accumulation
B1,Abundance of CD8+ T cells in spleen,Ter-cells [6]; [7],restored the abundance
same,"Apoptosis of immune cells, including MDSCs and CD8+ T cells",Ter-cells [6]; [7],did not change apoptosis levels
same,Apoptosis of splenic Ter-cells,"Ter-cells [6]; LLC tumor-bearing mice, intra-splenic injection, 3 days after treatment",increased apoptosis of Ter-cells
same,MHC I expression on Ter-cells,Ter-cells [6]; day 3 post intrasplenic injection,enhanced the MHC I expression
B2,Level of secreted artemin in serum under IR or PD-L1 blockade,artemin,diminished the effects of IR and PD-L1 blockade
same,Tumor growth: influence on the therapeutic effect of IR and PD-L1 blockade,LLC tumor [3],inhibited the therapeutic effect of both IR and PD-L1 blockade
same,Ter-cell accumulation under IR or PD-L1 blockade,Ter-cells [5]; LLC tumor-bearing mice treated with IR or anti-PD-L1 plus EPO i.v.,diminished the effects of IR and PD-L1 blockade
same,Spleen size and Ter-cell accumulation in naive mice,"Ter-cells [5]; naive B6 mice, i.v. and s.c. routes",increased spleen size and Ter-cell accumulation
